The target of assay [1] is SpyCatcher-H5 hemagglutinin construct (avian influenza A). The assay is described as follows: SpyTag/SpyCatcher reaction, SDS-PAGE.
Assay [2] has as its target SpyCatcher-CBU1910 fusion protein (Coxiella burnetii). The assay is described as follows: SpyTag/SpyCatcher conjugation, SDS-PAGE.

B1: CpG-ST-E2 nanoparticle (ST-E2 with CpG 1826 conjugated in the internal cavity) (other)
chain: MAHIVMVDAYKPTKGSGTAGGGSGSLSVPGPAAAEEKAAPAAAKPATTEGEFPETREKMSGIRRAIAKAMVHSKHTAPHVTLMDEADVTKLVAHRKKFKAIAAEKGIKLTFLPYVVKALVSALREYPVLNTSIDDETEEIIQKHYYNIGIAADTDRGLLVPVIKHADRKPIFALAQEINELAEKARDGKLTPGEMKGASCTITNIGSAGGQWFTPVINHPEVAILGIGRIAEKPIVRCGEIVAAPMLALSLSFDHRMIDGATAQKALNHIKRLLSDPELLLMEA
With B1, the binding result in assay [1] and in assay [2] was “binds” throughout.
